Common to all, as to assay: ELISA
In experiment [1] the target is BSA-conjugated Aβ heptapeptide VFFAEDC.
Experiment [2] concerns the target BSA-conjugated Aβ heptapeptide LVFFAEC.
The target of experiment [3] is BSA-conjugated Aβ heptapeptide AEFRHDC.
For experiment [4], the target named is BSA-conjugated Aβ heptapeptide FFAEDVC.

As to 6E10 (antibody), in experiment [1], the OD ratio 18-23/BSA was 1 and the Peptide-ratio 18-23/2-7 is 0.06. Besides, in experiment [2], the OD ratio 17-22/BSA came out at 1 and the Peptide-ratio 17-22/2-7 was found to be 0.06. Further, in experiment [3], the OD ratio 2-7/BSA is 18. Moreover, in experiment [4], the OD ratio 19-24/BSA was 1 and the Peptide-ratio 19-24/2-7 was found to be 0.06.
Take AMY-33 (antibody): in experiment [1], the OD ratio 18-23/BSA stood at 1 and the Peptide-ratio 18-23/2-7 is 0.06. For the same substance, in experiment [2], the OD ratio 17-22/BSA is 2 and the Peptide-ratio 17-22/2-7 turned out to be 0.13. In addition, the OD ratio 2-7/BSA in experiment [3] came out at 16. Further, in experiment [4], the OD ratio 19-24/BSA was determined as 3 and the Peptide-ratio 19-24/2-7 turned out to be 0.19.
For 4G8 (antibody), in experiment [1], the OD ratio 18-23/BSA was 20 and the Peptide-ratio 18-23/2-7 came out at 20. Also, in experiment [2], the OD ratio 17-22/BSA was 23 and the Peptide-ratio 17-22/2-7 turned out to be 23. Besides, the OD ratio 2-7/BSA in experiment [3] came out at 1. For the same substance, in experiment [4], the OD ratio 19-24/BSA is 1 and the Peptide-ratio 19-24/2-7 amounted to 1.

The record behind these values is US20100172907A1.
